According to publication doi:10.1101/2023.04.21.537819, “DNA damage-induced interaction between a lineage addiction oncogenic transcription factor and the MRN complex shapes a tissue-specific DNA Damage Response and cancer predisposition” (bioRxiv, 2023):

Target: T1, mCherry-LacR-MITF (human, UniProt O75030-9 1-419)
T1 construct: MITF, human; In the self-association test the second copy was MITF-GFP (pEGFP-C1-MITF, Ngeow et al. 2018) in place of mCherry-LacR; also called LacR-mCherry-MITF; MITF WT; source: U2OS-LacO#13 cells, transfected, in cells; not shown: mCherry-LacR, N-terminal, kept
T1 sequence (looked up): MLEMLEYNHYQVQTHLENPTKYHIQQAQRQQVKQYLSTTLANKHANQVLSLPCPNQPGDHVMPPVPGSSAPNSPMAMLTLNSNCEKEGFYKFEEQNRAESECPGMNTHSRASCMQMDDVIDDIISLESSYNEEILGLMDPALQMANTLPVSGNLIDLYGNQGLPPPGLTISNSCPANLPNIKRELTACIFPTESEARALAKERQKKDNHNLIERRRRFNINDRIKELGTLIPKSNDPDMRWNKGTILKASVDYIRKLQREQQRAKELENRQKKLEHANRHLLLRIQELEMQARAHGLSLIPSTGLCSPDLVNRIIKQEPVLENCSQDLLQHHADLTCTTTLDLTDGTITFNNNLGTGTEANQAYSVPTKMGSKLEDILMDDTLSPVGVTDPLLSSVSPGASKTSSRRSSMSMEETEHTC
Experiment: LacR/LacO nuclear tethering assay; U2OS-LacO#13 cells transfected 24 h with an mCherry-LacR bait (tethered at the LacO array) and a GFP-tagged prey; fixed, confocal microscopy; ratio of GFP fluorescence inside the mCherry dot to the rest of the nucleus
Details: partners not purified

B1: NBS1-GFP (natural protein, UniProt O60934 1-754, looked up)
chain: MWKLLPAAGPAGGEPYRLLTGVEYVVGRKNCAILIENDQSISRNHAVLTANFSVTNLSQTDEIPVLTLKDNSKYGTFVNEEKMQNGFSRTLKSGDGITFGVFGSKFRIEYEPLVACSSCLDVSGKTALNQAILQLGGFTVNNWTEECTHLVMVSVKVTIKTICALICGRPIVKPEYFTEFLKAVESKKQPPQIESFYPPLDEPSIGSKNVDLSGRQERKQIFKGKTFIFLNAKQHKKLSSAVVFGGGEARLITEENEEEHNFFLAPGTCVVDTGITNSQTLIPDCQKKWIQSIMDMLQRQGLRPIPEAEIGLAVIFMTTKNYCDPQGHPSTGLKTTTPGPSLSQGVSVDEKLMPSAPVNTTTYVADTESEQADTWDLSERPKEIKVSKMEQKFRMLSQDAPTVKESCKTSSNNNSMVSNTLAKMRIPNYQLSPTKLPSINKSKDRASQQQQTNSIRNYFQPSTKKRERDEENQEMSSCKSARIETSCSLLEQTQPATPSLWKNKEQHLSENEPVDTNSDNNLFTDTDLKSIVKNSASKSHAAEKLRSNKKREMDDVAIEDEVLEQLFKDTKPELEIDVKVQKQEEDVNVRKRPRMDIETNDTFSDEAVPESSKISQENEIGKKRELKEDSLWSAKEISNNDKLQDDSEMLPKKLLLTEFRSLVIKNSTSRNPSGINDDYGQLKNFKKFKKVTYPGAGKLPHIIGGSDLIAHHARKNTELEEWLRQEMEVQNQHAKEESLADDLFRYNPYLKRRR
notes: NBS1 (nibrin), component of the MRN complex; plasmid pcDNA3.1(+)-C-eGFP-NBS1 from GenScript; also called GFP-NBS1; pcDNA3.1(+)-C-eGFP-NBS1; source: U2OS-LacO#13 cells, transfected, in cells; not shown: eGFP, C-terminal, kept
median enrichment of GFP at the mCherry dot over the rest of the nucleus: 7 fold
